Data taken from the supplement of paper PMC12042874.
± gives the uncertainty stated by the source.

Assay: amyloid nucleation score (Sup35N fusion, yeast selection) (log enrichment); library NNK3; higher = more nucleation; inactive = no reads after selection
Method in brief: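 In psi-negative yeast, Sup35N fusions carrying peptides of 20 random codons were induced with 100 μM copper sulfate for 24 hours. The cells then grew 7 days at 30°C on medium lacking adenine and uracil, and plasmid inserts from input and output were Illumina-sequenced, excluding sequences with under 100 input reads. Nucleation score is the DiMSum log enrichment of output over input reads, centred on the mode score of non-aggregating sequences.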

Substance | amyloid nucleation score
MFLSALDNGLLVNGYVICVC | inactive
YYLCYLSVHLSMIGCKEKGR | inactive
DILEVIDIF | inactive
SIFSSCLSPYSFSYIKLLSC | 0.504 ± 0.26
GICWY | inactive
FYSSACVRPVVRYCCVMCDS | inactive
GWNLGMAHSRRYGPVNISAW | inactive
DNLFSETSYVVRFARFL | inactive
NSPNTNVPGFSRGAFAGGRH | inactive
CSNAHFWVRILKECSLRGSG | 0.587 ± 0.41
VRSTYGNKGFVSQRGLQFSP | inactive
FTLFIQVV | inactive
NSLDSRMYGI | inactive
NFSIYYLDLISR | 1.95 ± 0.098
FCFNGRCIFFYSSSLYVFGF | inactive
RWDVEIPNLQICKRT | inactive
AVINVILIIVSECRNSN | 1.9 ± 0.075
LRRGMMARFIVNVVRVN | inactive
FLINPFVWFNNYSFTAF | 0.929 ± 0.14
ILGRSSISFDLM | inactive
ASGVPIADYTNTLKRWWLSE | inactive
SMYLYVAWARVLNDLDNID | inactive

Substance | amyloid nucleation score
THPVSCRYVSPDMSSAHYFV | inactive
KAFCFF | 1.24 ± 0.12
NLPRKGSGWDIHDRRHPWRS | inactive
EFFCWIDSSIGSRYFSMTED | inactive
SNSHVTKDLGVCRGLATCRG | inactive
FFVLGRSTMSWLR | inactive
RSLYWIWWDDSKSNE | inactive
RASTISLGKLVQLYLYSRRL | 0.468 ± 0.3
VFLVTSRVNIRCVVLHIINE | 1.08 ± 0.11
CFGCVWLTITTNFPTVLFRG | inactive
KNEVIYHWLRRRVNSRRTFR | inactive
KSTTACASRTYMCMHTGRNC | inactive
FMLNVVDY | inactive
HGMGYRAIFIFNLISQPRLE | 2.52 ± 0.078
FIEKAC | inactive
AIPSMSSRTLNQVSPIDPDL | 0.706 ± 0.17
ICAVFWDCMISRSCDTALYS | inactive
VFWLKVSVSLFPVLYGRS | inactive
FSDRRSINPELEF | inactive
RHSFMRFRLSNWV | inactive
YCVQCR | inactive
PSTSVPTDMMRFSIYSLLRS | inactive

Substance | amyloid nucleation score
LVFKYSKAVSTYWYEGDQVT | inactive
SGVGCKSLFWSSVAYMSIWG | inactive
FGVSNRMWRKSRNLSGSPRA | inactive
FECRQ | inactive
TNLWFKNLSMFMGIVSLART | inactive
QTRVHLFAREPPCFTEFNER | inactive
QYGIKGRRVKCWLCWHGDVE | inactive
FYIYP | inactive
YRRLCGDCGFGTLRLDLLFV | inactive
FLGDSTNGRRFFSEFRSEWG | 0.964 ± 0.17
FFTRSNVLRSVCFSSPITLW | inactive
YCCSGMWVMRSVHSHEIGYL | 0.966 ± 0.18
IYRVYYDSTLGMCPAWGFYK | inactive
QPDFLSWVDACVNKVVYWVK | -0.421 ± 0.98
IWWKNIGCAKYWVIPLRQWA | inactive
GYSVYYANVSVRGLKSRDHC | inactive
SLESWFVTRRCSRYESTFMS | inactive
LLDKVLSEPKTSQDRSENVA | -0.696 ± 1.1
DKTCMVKPT | inactive
MVHAVPHMVDGGS | inactive
SIAIHSMLKYNVPLVSRHSG | inactive
